In US20240192215A1:

Tests used:
Peptide_044 (human) [1] = biological target: T1, Peptide_044 (human); test: peptide microarray, 1 ug/mL
T1 sequence (peptide): FSATWCGPCKMIKPF

Peptide_096 (human) [2] = biological target: T2, Peptide_096 (human); test: peptide microarray, 1 ug/mL
T2 sequence (peptide): FFKKGQKVGEFSGAN

Peptide_097 (human) [3] = biological target: T3, Peptide_097 (human); test: peptide microarray, 1 ug/mL
T3 sequence (peptide): FKKGQKVGEFSGANK

Peptide_044 (human) [4] = biological target: T1, Peptide_044 (human); test: peptide microarray, 5 ug/mL
Peptide_096 (human) [5] = biological target: T2, Peptide_096 (human); test: peptide microarray, 5 ug/mL
Peptide_097 (human) [6] = biological target: T3, Peptide_097 (human); test: peptide microarray, 5 ug/mL
Peptide_044 (human) [7] = biological target: T1, Peptide_044 (human); test: peptide microarray, 0.2 ug/mL
Peptide_096 (human) [8] = biological target: T2, Peptide_096 (human); test: peptide microarray, 0.2 ug/mL
Peptide_097 (human) [9] = biological target: T3, Peptide_097 (human); test: peptide microarray, 0.2 ug/mL
Peptide_044 (human) [10] = biological target: T1, Peptide_044 (human); test: peptide microarray, 0.04 ug/mL
Peptide_096 (human) [11] = biological target: T2, Peptide_096 (human); test: peptide microarray, 0.04 ug/mL
Peptide_097 (human) [12] = biological target: T3, Peptide_097 (human); test: peptide microarray, 0.04 ug/mL
Peptide_044 (human) [13] = biological target: T1, Peptide_044 (human); test: peptide microarray, 0.0016 ug/mL
Peptide_096 (human) [14] = biological target: T2, Peptide_096 (human); test: peptide microarray, 0.0016 ug/mL
Peptide_097 (human) [15] = biological target: T3, Peptide_097 (human); test: peptide microarray, 0.0016 ug/mL
Peptide_044 (human) [16] = biological target: T1, Peptide_044 (human); test: peptide microarray, head 0.08 ug (text 0.008 ug/mL)
Peptide_096 (human) [17] = biological target: T2, Peptide_096 (human); test: as above
Peptide_097 (human) [18] = biological target: T3, Peptide_097 (human); test: as above
TRX-N-His-M1 (human) = TRX-N-His-M1 (human) (UniProt P10599); test: ELISA, mutant M1 coated at 2 ug/mL, antibody concentration not given, anti-mouse Fc-HRP (Example 16)
TRX-N-His-M2 (human) = TRX-N-His-M2 (human) (UniProt P10599); test: ELISA, mutant M2 coated at 2 ug/mL, antibody concentration not given, anti-mouse Fc-HRP (Example 16)
TRX-N-His-M4 (human) = TRX-N-His-M4 (human) (UniProt P10599); test: ELISA, mutant M4 coated at 2 ug/mL, antibody concentration not given, anti-mouse Fc-HRP (Example 16)
M7 = biological target: T4, M7; test: ELISA, mutant M7 coated at 2 ug/mL, antibody concentration not given, anti-mouse Fc-HRP (Example 16)
T4 sequence (single chain): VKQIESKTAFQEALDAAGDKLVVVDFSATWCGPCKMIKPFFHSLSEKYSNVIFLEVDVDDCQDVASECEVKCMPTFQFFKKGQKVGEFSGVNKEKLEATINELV

TRX-N-His-M2 (human), sequence (P10599 whole entry): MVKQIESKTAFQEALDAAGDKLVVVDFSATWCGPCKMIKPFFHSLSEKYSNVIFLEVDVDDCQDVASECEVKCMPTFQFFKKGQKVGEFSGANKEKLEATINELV
TRX-N-His-M4 (human), sequence (P10599 whole entry): as above
TRX-N-His-M1 (human), sequence (P10599 whole entry): as above

- signal (blank-control = 1) (Peptide_044 (human) [1]): 2.93
- signal (blank-control = 1) (Peptide_096 (human) [2]): 2.04
- signal (blank-control = 1) (Peptide_097 (human) [3]): 2.18
- signal (blank-control = 1) (Peptide_044 (human) [4]): 3.33
- signal (blank-control = 1) (Peptide_096 (human) [5]): 1.9
- signal (blank-control = 1) (Peptide_097 (human) [6]): 2.26
- signal (blank-control = 1) (Peptide_044 (human) [7]): 2.3
- signal (blank-control = 1) (Peptide_096 (human) [8]): 1.37
- signal (blank-control = 1) (Peptide_097 (human) [9]): 1.68
- signal (blank-control = 1) (Peptide_044 (human) [10]): 2.12
- signal (blank-control = 1) (Peptide_096 (human) [11]): 1.44
- signal (blank-control = 1) (Peptide_097 (human) [12]): 1.31
- signal (blank-control = 1) (Peptide_044 (human) [13]): 1.6
- signal (blank-control = 1) (Peptide_096 (human) [14]): 0.82
- signal (blank-control = 1) (Peptide_097 (human) [15]): 0.91
- signal (blank-control = 1) (Peptide_044 (human) [16]): 1.87
- signal (blank-control = 1) (Peptide_096 (human) [17]): 0.94
- signal (blank-control = 1) (Peptide_097 (human) [18]): 1.08
- OD 490 nm (TRX-N-His-M1 (human)): 0.0424
- OD 490 nm (TRX-N-His-M2 (human)): 0.094
- OD 490 nm (TRX-N-His-M4 (human)): 0.181
- OD 490 nm (M7): 0.761
B1: monoclonal antibody B264 (antibody, mouse IgG1, kappa, V domains shown)
VH: QVQLQQSGAELARPGASVKMSCKASGYTFTSYTMHWVKQRPGQGLEWIGYINPTSDYTNYNQKFKDKATLTADKSSSTAYMQLSSLTSEDSAVYFCASEGGFLYYFDYWGQGTTLTVSS
VL: DVLMTQTPLSLPVSLGDQASISCRSSQSIVHSNGNTYLEWYLQKPGQSPKLLIYKVSNRFSGVPDRFSGSGSGTDFTLKISRVEAEDLGVYYCFQGSHVPYTFGGGTKLEIKR
